{
  "source": "paper PMC10450579",
  "about": "(2023)",
  "binders": {"B1": {"name": "monobody Mb2 (designed binder)", "chain": "GSVSSVPTKLEVVAATPTSLLISWDAPAVTVVHYVITYGETGGNSPVQEFTVPGSKSTATISGLKPGVDYTITVYAIDFYWGSYSPISINYRT"}, "B2": {"name": "Aurora A kinase (AurA), residues 122 to 403 (domain or fragment)", "chain": "ESKKRQWALEDFEIGRPLGKGKFGNVYLAREKQSKFILALKVLFKAQLEKAGVEHQLRREVEIQSHLRHPNILRLYGYFHDATRVYLILEYAPLGTVYRELQKLSKFDEQRTATYITELANALSYCHSKRVIHRDIKPENLLLGSAGELKIADFGWSVHAPSSRRTTLCGTLDYLPPEMIEGRMHDEKVDLWSLGVLCYEFLVGKPPFEANTYQETYKRISRVEFTFPDFVTEGARDLISRLLKHNPSQRPMLREVLEHPWITANSSKPSNCQNKESASKQS"}},
  "key": {"[1]": {"target": "B2", "assay": "ITC"}, "Mb3 [2]": {"target": "Mb3", "assay": "ITC; AurA preincubated with danusertib"}, "Mb3 [3]": {"target": "Mb3", "assay": "ITC"}},
  "note": "“And” between values parts separate entries of the source, which are not always exact repeats. Equal values may be shown once.",
  "data": [
    {"binder": "B1", "values": [
      {"measurement": "Kd", "setting": "[1]", "value": "889 nM and 1500 nM"}
    ]},
    {"binder": "B2", "values": [
      {"measurement": "Kd", "setting": "Mb3 [2]", "value": 69, "unit": "nM"},
      {"measurement": "Kd", "setting": "Mb3 [3]", "value": 180, "unit": "nM"}
    ]}
  ]
}
